Data: patent publication EP4631972A1, “SITE-SPECIFIC COUPLED PEGYLATED INTERLEUKIN-2 MUTANT WITH RECEPTOR AFFINITY PREFERENCE AND USE THEREOF” (priority 2022, dated 2024)

Target: T1, IL-2βγ dual receptor (Homo sapiens, UniProt P14784+P31785)
T1 construct: Uniprot P14784 1Met-551Val was constructed into plasmid pcDNA3.1(+); Uniprot P31785 1Met-551Thr was constructed into plasmid pcDNA3.1/zeo; expressed in transfected cells; host or cells: 293EC18 cells, transient co-transfection with pCMV/JAK3 and PGL4.52/STAT5RE
T1 sequence (P14784 27-551): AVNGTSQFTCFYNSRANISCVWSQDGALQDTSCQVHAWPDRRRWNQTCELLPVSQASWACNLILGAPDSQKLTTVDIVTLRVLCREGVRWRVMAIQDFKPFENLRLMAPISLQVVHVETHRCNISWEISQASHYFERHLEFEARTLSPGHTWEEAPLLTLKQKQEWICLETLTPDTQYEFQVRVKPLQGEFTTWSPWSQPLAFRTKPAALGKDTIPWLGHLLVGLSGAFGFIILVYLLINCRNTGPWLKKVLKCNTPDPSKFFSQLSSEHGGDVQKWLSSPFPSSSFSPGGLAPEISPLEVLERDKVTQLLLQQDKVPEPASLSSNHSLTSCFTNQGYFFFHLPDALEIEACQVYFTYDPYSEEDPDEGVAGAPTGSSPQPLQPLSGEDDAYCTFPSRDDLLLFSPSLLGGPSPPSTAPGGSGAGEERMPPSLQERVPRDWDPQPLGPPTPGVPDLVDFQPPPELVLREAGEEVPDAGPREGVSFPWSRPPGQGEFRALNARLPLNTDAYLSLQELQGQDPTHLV
T1 sequence (P31785 23-369): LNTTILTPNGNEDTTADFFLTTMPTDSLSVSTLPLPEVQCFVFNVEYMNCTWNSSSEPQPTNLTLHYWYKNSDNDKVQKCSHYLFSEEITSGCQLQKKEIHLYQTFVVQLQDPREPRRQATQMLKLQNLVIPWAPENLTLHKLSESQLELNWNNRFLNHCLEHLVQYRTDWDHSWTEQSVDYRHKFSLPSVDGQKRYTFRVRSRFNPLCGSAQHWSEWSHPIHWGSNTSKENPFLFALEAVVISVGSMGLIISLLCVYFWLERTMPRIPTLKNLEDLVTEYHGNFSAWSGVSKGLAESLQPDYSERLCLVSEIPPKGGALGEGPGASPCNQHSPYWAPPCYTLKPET
Test: STAT5 reporter gene assay, activation of IL-2βγ dual receptor in 293EC18/βγ/JAK3/STAT5 cells
Format: cell-based
Settings: for activation effect on the IL-2Rβγ dual receptor compared with control IL-2 N88R: Figure 1, concentration of 65.2 nM
Experimental: Since the binding of IL-2 to the β and γ subunits of its receptor induces STAT5 phosphorylation, which subsequently leads to dimerization and translocation into the nucleus to promote target gene transcription, this example evaluates the ability of the mutant IL-2 polypeptides to induce signaling through the IL-2 receptor by measuring STAT5 phosphorylation.
Adherent 293EC18 cells were cultured to about 90% confluence using conventional methods. After trypsin digestion, the cells were resuspended in cell culture medium to 4×10^5 cells/ml and 50 µl/well were added to two 96-well cell culture plates. After incubation at 37°C for 48 h, the supernatant was aspirated and fresh culture medium was added. According to the manufacturer's method, four plasmids, pcDNA3.1(+)/CD122 (constructed by Nanjing Novoacine Biotechnology Co., Ltd, Uniprot P14784 1Met-551Val was constructed into plasmid pcDNA3.1(+)), pcDNA3.1/puro/CD132 (constructed by Nanjing Novoacine Biotechnology Co., Ltd, Uniprot P31785 1Met-551Thr was constructed into plasmid pcDNA3.1/zeo), pCMV/JAK3 (Sino Biological), and PGL4.52/STAT5RE (Promega) were transiently transfected into 293EC18 cells using a cationic transfection reagent (ExFect Transfection Reagent, Vazyme). The obtained cells were named 293EC18/βγ/JAK3/STAT5 cells. Alternatively, five plasmids, pcDNA3.1/zeo/CD25 (constructed by Nanjing Novoacine Biotechnology Co., Ltd, Uniprot P01589 1Met-551Ile constructed into plasmid pcDNA3.1/zeo), pcDNA3.1(+)/CD122 (constructed by Nanjing Novoacine Biotechnology Co., Ltd, Uniprot P14784 1Met-551Val constructed into plasmid pcDNA3.1(+)), pcDNA3.1/puro/CD132 (constructed by Nanjing Novoacine Biotechnology Co., Ltd, UniprotP31785 1Met-551Thr constructed into plasmid pcDNA3.1/zeo), pCMV/JAK3 (Sino Biological), and PGL4.52/STAT5RE (Promega) were transiently transferred into 293EC18 cells, and the obtained cells were named 293EC18/αβγ/JAK3/STAT5 cells. The transfected cells were incubated at 37°C and 5% CO2 for another 6 h.
Each IL2 mutant was diluted 4-fold in a gradient manner using PBS buffer, with a total of 11 dilutions and a starting concentration of 65.2 nM. In the above cell culture plates, 50 µl/well of each of the serially diluted IL2 mutant samples was added in duplicate. Then, the cell culture plate was placed in an incubator at 37°C and 5% CO2 for overnight culture. The cell culture plates were kept at room temperature for 20 ± 5 minutes to equilibrate the plates to room temperature. Bio-Lite Luciferase Assay System reagents that have been mixed and equilibrated to room temperature were added to the cell culture plates to be tested at 100 µl/well, placed on a microplate shaker at 450 rpm to mix for 2 minutes, then allowed to stand at room temperature for 3 minutes, and the chemiluminescence value was detected with an enzyme plate reader.
The logarithm of the final concentration of each IL-2 mutant sample was used as the X-axis, and the chemiluminescence detection results were used as the Y-axis for plotting. Data were analyzed using the four-parameter logistic regression model in GraphPad Prism 9. Table 2 EC50 values for the activation of the IL-2αβγ triple receptor by PEG-IL-2 mutants as determined by a reporter gene assay.
According to the method of Example 3, each polyethylene glycol-modified mutant obtained in this example was assessed for the binding preference to the IL2 receptors by a reporter assay. Table 4 EC50 values for the activation of the IL-2αβγ triple receptor by PEG-IL-2 mutants as determined by a reporter gene assay.
Referring to Example 3, the phosphorylation of STAT5 was used to evaluate the ability of the PEG-modified IL-2 mutants having a non-natural amino acid mutation prepared in Example 14 to induce signal transduction via the IL-2 receptor. […]

B1: 80K-1PEG-IL2-N88R-N77C: IL-2 mutant N88R, N77C, conjugation site 77, PEG molecular weight 80kD (conjugate)
chain: APTSSSTKKTQLQLEHLLLDLQMILNGINNYKNPKLTRMLTFKFYMPKKATELKHLQCLEEELKPLEEVLNLAQSKC(PEG 80 kDa)FHLRPRDLISRINVIVLELKGSETTFMCEYADETATIVEFLNRWITFSQSIISTLT
**Q.** Which results are given for B1?
**A.** activation effect on the IL-2Rβγ dual receptor compared with control IL-2 N88R: lower activation effects; activation effect on the IL-2Rβγ dual receptor compared with control IL-2 N88R (listed as 80k-PEG-IL2-N88R-N77C): the most significant reduction in activation ability; activation effect on / affinity to IL-2Rβγ dual receptor compared with control IL-2 N88R (Figure 2, all concentrations): further reduced the affinity to IL-2Rβγ
